Laboratory results: PMC10279719 (Nature Communications, 2023)

Columns and labels:
Settings in all cases: both partners purified
[1] = target: T1, PEAK2^IDR1 (residues 802-1406), from insect cells, phosphorylated by Src (human, UniProt Q86YV5 802-1406, phosphorylated with Src kinase, sites not stated; phosphorylation of the tandem site 14-3-3 motif (RAASSP) found by proteomic analysis; biotin (EZ-Link NHS-PEG4-Biotin, 1:1 molar ratio)); assay: SPR; biotinylated PEAK proteins (with or without Src phosphorylation) captured with a biotin CAPture kit, CrkII NSH3 as analyte; Biacore 8K+, 20 °C, HBS-TP (150 mM NaCl); 1 M NaCl regeneration; steady state
T1 construct: human PEAK2 (SgK223, PRAG1), UniProt Q86YV5, residues 802-1406; also called PEAK2-IDR1 (+ Src phosphorylation); source: Sf21 insect cells, purified; phosphorylated in vitro with recombinant Src kinase domain
T1 sequence (looked up): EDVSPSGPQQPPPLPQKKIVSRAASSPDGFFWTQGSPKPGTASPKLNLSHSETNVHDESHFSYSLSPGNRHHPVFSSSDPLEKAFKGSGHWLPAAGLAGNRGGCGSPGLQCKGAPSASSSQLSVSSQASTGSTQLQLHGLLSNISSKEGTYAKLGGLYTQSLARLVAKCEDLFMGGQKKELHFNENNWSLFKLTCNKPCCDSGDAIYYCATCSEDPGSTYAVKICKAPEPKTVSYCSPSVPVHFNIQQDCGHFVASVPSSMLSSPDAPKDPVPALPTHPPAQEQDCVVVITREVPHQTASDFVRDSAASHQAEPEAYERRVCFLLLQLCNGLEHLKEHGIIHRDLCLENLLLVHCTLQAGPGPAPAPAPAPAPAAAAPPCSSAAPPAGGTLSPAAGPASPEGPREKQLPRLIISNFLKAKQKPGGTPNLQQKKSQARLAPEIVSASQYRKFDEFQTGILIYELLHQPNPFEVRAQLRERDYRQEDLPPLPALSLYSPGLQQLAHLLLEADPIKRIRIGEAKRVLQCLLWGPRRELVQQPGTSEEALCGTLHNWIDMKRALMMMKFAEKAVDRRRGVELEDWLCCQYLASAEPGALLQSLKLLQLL

[2] = target: T2, PEAK2^IDR1 (residues 802-1406), from insect cells (human, UniProt Q86YV5 802-1406, phosphorylation of the tandem site 14-3-3 motif (RAASSP) found by proteomic analysis; biotin (EZ-Link NHS-PEG4-Biotin, 1:1 molar ratio)); assay: as above
T2 construct: human PEAK2 (SgK223, PRAG1), UniProt Q86YV5, residues 802-1406; Purifies as a homodimer
T2 sequence (looked up): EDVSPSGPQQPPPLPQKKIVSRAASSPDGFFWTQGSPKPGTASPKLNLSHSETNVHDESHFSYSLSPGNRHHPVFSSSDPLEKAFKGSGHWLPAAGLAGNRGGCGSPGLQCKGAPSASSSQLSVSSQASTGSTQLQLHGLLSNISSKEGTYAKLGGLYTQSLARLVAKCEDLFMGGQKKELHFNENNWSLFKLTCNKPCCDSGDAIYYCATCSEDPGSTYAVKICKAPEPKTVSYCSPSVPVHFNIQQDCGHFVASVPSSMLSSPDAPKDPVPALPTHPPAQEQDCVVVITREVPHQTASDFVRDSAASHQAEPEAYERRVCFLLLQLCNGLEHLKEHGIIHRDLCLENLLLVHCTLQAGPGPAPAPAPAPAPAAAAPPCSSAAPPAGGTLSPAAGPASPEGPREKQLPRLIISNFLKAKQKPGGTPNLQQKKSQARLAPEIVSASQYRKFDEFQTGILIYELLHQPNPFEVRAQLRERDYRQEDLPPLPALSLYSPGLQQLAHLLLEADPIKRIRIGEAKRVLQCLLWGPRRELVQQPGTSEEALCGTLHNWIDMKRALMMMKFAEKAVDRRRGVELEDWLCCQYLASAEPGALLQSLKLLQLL

[3] = target: T3, full length PEAK3 (PEAK3^FL, residues 1-473), from E. coli, phosphorylated by Src (human, UniProt Q6ZS72 1-473, phosphorylated with Src kinase (Y24 is the site shown for PEAK3^FL by MS/MS); other Src sites not stated; biotin (EZ-Link NHS-PEG4-Biotin, 1:1 molar ratio)); assay: as above
T3 construct: also called PEAK3-FL E.coli (+ Src phosphorylation); source: E. coli C41 (DE3), purified; phosphorylated in vitro with recombinant Src kinase domain
T3 sequence (looked up): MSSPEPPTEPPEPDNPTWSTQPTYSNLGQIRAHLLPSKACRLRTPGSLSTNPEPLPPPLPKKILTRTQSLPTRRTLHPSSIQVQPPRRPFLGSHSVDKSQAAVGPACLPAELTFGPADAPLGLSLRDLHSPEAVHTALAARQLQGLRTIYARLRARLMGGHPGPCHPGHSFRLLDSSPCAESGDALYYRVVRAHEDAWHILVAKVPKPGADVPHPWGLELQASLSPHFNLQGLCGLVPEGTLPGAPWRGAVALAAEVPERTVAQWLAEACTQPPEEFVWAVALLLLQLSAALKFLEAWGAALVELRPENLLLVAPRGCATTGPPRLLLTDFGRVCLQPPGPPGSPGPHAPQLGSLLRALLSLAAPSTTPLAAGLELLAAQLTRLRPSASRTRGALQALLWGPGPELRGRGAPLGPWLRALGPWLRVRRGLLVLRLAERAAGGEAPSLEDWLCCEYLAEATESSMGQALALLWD

[4] = target: T4, full length PEAK3 (PEAK3^FL, residues 1-473), from E. coli (human, UniProt Q6ZS72 1-473, biotin (EZ-Link NHS-PEG4-Biotin, 1:1 molar ratio)); assay: as above
T4 construct: also called PEAK3-FL E.coli; source: E. coli C41 (DE3), purified (two-step purification)
T4 sequence (looked up): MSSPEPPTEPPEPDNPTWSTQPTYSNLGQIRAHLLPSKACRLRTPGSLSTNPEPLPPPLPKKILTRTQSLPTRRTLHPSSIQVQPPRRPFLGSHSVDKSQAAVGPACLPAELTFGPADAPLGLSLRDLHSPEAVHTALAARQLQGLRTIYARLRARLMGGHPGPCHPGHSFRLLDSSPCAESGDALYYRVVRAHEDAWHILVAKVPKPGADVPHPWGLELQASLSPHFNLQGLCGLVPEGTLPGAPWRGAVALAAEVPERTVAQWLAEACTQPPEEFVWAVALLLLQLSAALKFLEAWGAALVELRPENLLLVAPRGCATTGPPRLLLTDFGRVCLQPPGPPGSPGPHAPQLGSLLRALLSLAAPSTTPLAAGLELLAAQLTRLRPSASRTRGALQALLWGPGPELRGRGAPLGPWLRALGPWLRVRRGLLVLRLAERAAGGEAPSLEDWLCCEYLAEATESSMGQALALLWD

[5] = target: T5, PEAK3 tandem-pS69 peptide (residues 54-74) (human, N-terminal acetyl; phosphoserine at S69; C-terminal amide); assay: ITC; binary; peptide in the cell (20 µM, or 16.8 µM after a buffer titration), protein in the syringe; 25 °C, 20 mM HEPES pH 7.4, 150 mM NaCl, 1 mM TCEP; single binding site model
T5 construct: source: synthetic peptide, bought: Mimotopes (95% purity)
T5 peptide: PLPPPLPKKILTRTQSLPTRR

[6] = target: T6, PEAK3 tandem peptide, non-phosphorylated (residues 54-74) (human, N-terminal acetyl; C-terminal amide); assay: as above
T6 construct: source: synthetic peptide, bought: Mimotopes (95% purity)
T6 peptide: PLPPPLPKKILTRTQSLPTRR

Kd [1]: 5.2 µM
Kd [2]: 4.79 µM
Kd [3]: 13.1 µM
Kd [4]: 9.6 µM
stoichiometry N [5]: 0.823
stoichiometry N [6]: 0.904
B1: CrkII N-terminal SH3 domain (CrkII^NSH3, residues 134-191) (domain or fragment, human, UniProt P46108-1 134-191, looked up)
chain: AEYVRALFDFNGNDEEDLPFKKGDILRIRDKPEEQWWNAEDSEGKRGMIPVPYVEKYR
notes: human CrkII NSH3 domain, UniProt P46108-1, residues 134-191; Amine coupled to a CM5 chip in a2; analyte in a4; in the syringe in ITC
